{"source": "patent US20130028978A1", "about": "“COMPOSITIONS AND METHODS FOR WOUND TREATMENT” (The Trustees of Columbia University in the City of New York, priority 2009, published 2013)", "molecules": {"B1": {"name": "CCN2/CTGF: recombinant human connective tissue growth factor (BioVendor); 36-38 kDa cysteine-rich protein of the CCN family; SEQ ID NO: 1 (protein, listed as Homo sapiens)", "chain": "MTAASMGPVRVAFVVLLALCSRPAVGQNCSGPCRCPDEPAPRCPAGVSLVLDGCGCCRVCAKQLGELCTERDPCDPHKGLFCDFGSPANRKIGVCTAKDGAPCIFGGTVYRSGESFQSSCKYQCTCLDGAVGCMPLCSMDVRLPSPDCPFPRRVKLPGKCCEEWVCDEPKDQTVVGPALAAYRLEDTFGPDPTMIRANCLVQTTEWSACSKTCGMGISTRVTNDNASCRLEKQSRLCMVRPCEADLEENIKKGKKCIRTPKISKPIKFELSGCTSMKTYRAKFCGVCTDGRCCTPHRTTTLPVEFKCPDGEVMKKNMMFIKTCACHYNCPGDNDIFESLYYRKMYGDMA"}}, "key": {"keloid cell": {"test_system": "keloid cell", "test": "Keloid cell matrix synthesis", "format": "cell-based", "settings": "0, 50, 100, 200, 500 ng/ml"}, "[1]": {"test_system": "MSCs or MSC-derived fibroblasts (MSC-Fb)", "test": "Myofibroblastic differentiation: αSMA expression by immunofluorescence and flow cytometry", "format": "cell-based, human", "procedure": "MSC-derived fibroblasts were subjected to 5 ng/mL recombinant human TGFβ1 (R&D Systems, Minneapolis, Minn.) for 7 days. Undifferentiated hMSCs were treated with TGFβ1 as control. The expression of αSMA (Abcam, Cambridge, Mass.) was evaluated by immunofluorescence with rhodamine-phalloidin (Invitrogen, Carlsbad, Calif.). The number of αSMA+ cells was quantified by flow cytometry.\nBriefly, cells were trypsinized, counted, resuspended into 1×10^6 cells/tube and fixed in […] formaldehyde. Following washing in 0.1% triton, the cells were incubated with αSMA primary antibody (Abcam, Cambridge, Mass.) for 30 min. Following centrifugation at 400 g for 5 min, the cells were incubated with fluorochrome-labeled secondary antibody (Abcam, Cambridge, Mass.) for 30 min in the dark, and resuspended in PBS supplemented with 3% BSA and 1% sodium azide. The samples were then analyzed using a multifunctional cell sorter (FACSAria™ II; BD Biosciences, San Jose, Calif.)."}, "[2]": {"test_system": "MSCs in collagen type I gel", "test": "Collagen gel contraction assay", "format": "cell-based, human", "settings": "cell-populated collagen lattices, up to 7 days", "procedure": "Neutralized collagen type I (2 mg/mL) (R&D Systems, Minneapolis, Minn.) was mixed thoroughly with 1×10^6/mL MSCs, MSC-Fb or αSMA+ cells. Cell-populated collagen solution was cast in 24-well plates for 1 hr at 37° C. to induce gelation. Upon 48-hr incubation, cell-populated collagen lattices were physically detached and allowed to float freely in medium. Up to the tested 7 days, the diameters of cell-populated collagen lattices were measured on digital images."}, "[3]": {"test_system": "CCN2/CTGF-treated MSCs (MSC-Fb)", "test": "Osteogenic, chondrogenic and adipogenic differentiation of CCN2/CTGF-treated MSCs (von Kossa, Alizarin Red, Safranin O, Oil-Red O)", "format": "cell-based, human", "procedure": "Chondrogenic medium was supplemented with 10 ng/mL transforming growth factor β3 (TGFβ3) (R&D Systems, Minneapolis, Minn.), whereas osteogenic medium was supplemented with 100 nM dexamethasone, 10 mM β-glycerophosphate, and 0.05 mM ascorbic acid-2-phosphate (Sigma) per our prior methods (31, 51). At Days 14 and 28, von Kossa staining and calcium assay was performed to evaluate osteogenic differentiation, whereas safranin O (Saf-O) straining and glycosaminoglycan (GAG) assays were performed to evaluate chondrogenic differentiation (Blyscan™, Biocolor, UK).\nOsteogenic and chondrogenic medium were prepared as described above. Adipogenic medium contained […], 0.5 mM isobutylmethylxanthine, and […] per our prior methods (31, 52, 53). In 4 wks, Alizarin Red, Saf-O, and Oil-Red O staining were performed."}, "[4]": {"test_system": "Human mesenchymal stem cells (hMSCs)", "test": "CCN2/CTGF fibroblastic differentiation of hMSCs: collagen deposition (Trichrome staining), collagen type I and tenascin-C ELISA", "format": "cell-based", "excerpt": "Human mesenchymal stem cells (hMSCs) were isolated from fresh whole bone marrow samples of two anonymous adult donors (age range: 20-25 yrs old) (AllCells, Berkeley, Calif.). Mononucleated and adherent cells were purified by centrifugation through a density gradient (Ficoll-Paque) per our prior methods (30) and using negative selection following manufacturer's protocols (RosetteSep, StemCell Technologies, Vancouver, Canada) to remove hematopoietic cells and other differentiated cells.\nBriefly, bone marrow was transferred to a 50 mL tube, followed by addition of […] of RosetteSep and incubation for 20 min. Then 15 mL PBS in 2% fetal bovine serum (FBS) and 1 mM ethylenediaminetetraacetic acid (EDTA) were added to a total volume of ˜30 mL. The sample was layered on 15 mL Ficoll-Paque and centrifuged 25 min at 3000×g. The entire layer of enriched cells was removed from Ficoll-Paque interface. The cocktail was centrifuged at 1000 rpm for 10 min. Collected cells were counted using trypan blue, plated at 0.5-1 million cells per 100 mm dish and allowed to attach for about 5 days, followed by regular medium change every two days. At 80-90% confluence, cells were trypsinized, centrifuged, resuspended in growth medium as passage 1 (P1) cells, and incubated in 5% CO2 at 37° C., with fresh medium changes every 3-4 days. Growth medium was defined as Dulbecco's Modified Eagle's Medium-Low Glucose (DMEM-LG; Sigma, St. Louis, Mo.), 1% antibiotic (1× Antibiotic-Antimycotic, including […] Penicillin G sodium, 10 mg/mL Streptomycin sulfate and 0.25 μg/mL amphotericine B) (Gibco, Invitrogen, Carlsbad, Calif.) and 10% Fetal Bovine Serum (FBS; Atlanta Biologicals, Norcross, Ga.).\nP3 or P4 hMSCs were culture-expanded in monolayer (˜5,000 cells/well) in 12-well plates. At 80-90% confluence, hMSCs were culture-supplemented with 0, 10, 50 or 100 ng/mL recombinant human connective tissue growth factor (CTGF) (BioVendor, Candler, N.C.) and 50 μg/mL ascorbic acid (Sigma), with conditioned medium change every third day. […] Accordingly, 100 ng/mL CCN2/CTGF was selected for fibroblastic differentiation for in vitro experiments.\n(§1) Two to four weeks following CCN2/CTGF treatment, collagen type I and tenascin-C (Tn-C) were assayed by ELISA using commercial kits (Chondrex, Redmond, Wash. and IBL-America, Minneapolis, Minn.). Collagen type I matrix was lysed using 0.5 M acetic acid. Collagen deposition was visualized using Trichrome staining. Total RNA was isolated using Trizol from CCN2/CTGF-treated hMSCs. Following lysing with Trizol, samples were incubated for 5 min at RT. A total of 0.2 mL chloroform per mL Trizol was added, and followed by mixing and incubation for 3 min. After centrifugation at 12,000×g and 4° C. for 15 min, the upper phase was transferred into a new tube with 500 μL isopropanol added. After 10 min incubation and another centrifugation for 10 min at 12,000×g, the supernatant was discarded. The pellet was washed with 1 mL 75% ethanol and dried for 5-10 min. RNA samples were eluted in 50 μL DEPC-water, assessed for concentration and purity at 260 and 280 nm, and stored at −80° C. prior to reverse transcription. All RNA samples were reverse transcribed using a kit (Applied Biosystems, Foster City, Calif.). For mRNA quantification, real-time quantitative PCR reactions with the cDNA samples were performed using 7300 Real Time PCR System TaqMan® gene expression assays (Applied Biosystems, Foster City, Calif.). Commercially available primers and probes for human collagen types I and III, Tn-C, fibronectin (FN), matrix metallopeptidase-1 (MMP-1), fibroblastic specific protein 1 (FSP1), and vimentin were used (49, 50). Collagen type II (Col-II) and osteocalcin (OC) were selected as chondrogenic and osteogenic differentiation markers, respectively. CD29, CD44, CD105, CD106, CD117, BMPR, and sca1 were selected as MSC markers (30, 31). GAPDH was used as housekeeping gene."}, "[5]": {"test_system": "calvarial suture mesenchymal cells", "test": "Fibroblastic differentiation of calvarial suture mesenchymal cells", "format": "cell-based, rat", "settings": "100 ng/mL, cells from p7 patent calvarial sutures", "procedure": "To isolate calvarial mesenchymal cells, the posterior interfrontal suture excluding calvarial bones was carefully dissected from p7 rat calvaria using surgical scissors. The overlying periosteum and the underlying dura mater were removed under dissection microscope. The isolated suture mesenchyme was lysed using 2 mg/mL collagenase for 1 hr at 37° C., and filtered with a tissue strainer (Fisher, Pittsburgh, Pa.). After centrifugation, the collected cells were counted using trypan blue, plated at 20,000-30,000 cells per 6-well plate, and allowed to attach for about 5 days, followed by medium change every 2-3 days until confluence. P1 or P2 calvarial cells were induced for osteogenic, chondrogenic, adipogenic, and fibroblastic differentiations for 4 wks as described below."}, "[6]": {"test_system": "Human mesenchymal stem cells (hMSCs)", "test": "Real-time quantitative PCR of MSC, fibroblastic, osteogenic, chondrogenic and myofibroblastic markers in CCN2/CTGF-treated hMSCs", "format": "cell-based", "procedure": "as §1"}, "[7]": {"test_system": "calvarial suture explants", "test": "Ex vivo modulation of calvarial morphogenesis in organ culture", "parameters": "species or system Sprague-Dawley rats", "procedure": "Calvarial explants, including frontal and parietal bones with intervening interfrontal, coronal and sagittal sutures were harvested with intact dura mater from p10 male Sprague-Dawley rats (Harlan, Indianapolis, Ind.). Isolated calvaria were placed in 12-well tissue culture plates with serum-free medium supplemented with 0 or 50 ng/mL recombinant human CCN2/CTGF (35), with medium change every 2 days. The CCN2/CTGF concentration was determined (data not shown). Five to 25 days following CCN2/CTGF treatment, Tn-C contents in supernatant were assayed using ELISA. Explant-cultured calvarial sutures were sectioned sagittally for H&E staining and immunohistochemistry. Calvarial sutures were scanned with pCT (vivaCT 40; Scanco, Southeastern, Pa.) to measure suture width."}, "[8]": {"settings": "2 and 4 wks, vs MSCs without CCN2/CTGF"}, "[9]": {"settings": "2 and 4 wks of CCN2/CTGF treatment"}}, "note": "Entries after “also recorded” stand apart in the source; their conditions may differ.", "data": [{"molecule": "COC(=O)[C@@]1(O)C[C@H]2O[C@]1(C)n1c3ccccc3c3c4c(c5c6ccccc6n2c5c31)C(=O)NC4", "note": "[K252A]", "values": [{"measurement": "keloid cell matrix synthesis", "setting": "keloid cell", "result": "inhibits keloid cell matrix synthesis"}]}, {"molecule": "TGFβ1: recombinant human TGFβ1 (R&D Systems), a known stimulant for myofibroblast phenotype", "values": [{"measurement": "αSMA expression (immunofluorescence)", "setting": "[1]; 5 ng/mL TGFβ1 on CCN2/CTGF-treated MSCs / MSC-derived fibroblastic cells", "result": "readily expressed αSMA+ microfilaments"}, {"measurement": "cells that gained αSMA phenotype (flow cytometry)", "setting": "[1]; TGFβ1 stimulation of CCN2/CTGF-treated MSCs (MSC-Fb)", "result": 31.9, "unit": "%"}, {"measurement": "cells that gained αSMA phenotype (flow cytometry)", "setting": "[1]; TGFβ1 stimulation of undifferentiated MSCs without prior CCN2/CTGF treatment", "result": 1.8, "unit": "%"}, {"measurement": "contraction of collagen gel", "setting": "[2]", "result": "moderate contraction"}]}, {"molecule": "B1", "values": [{"measurement": "αSMA expression (flow cytometry)", "setting": "[1]; CCN2/CTGF-treated MSCs (MSC-Fb), no TGFβ1", "result": "general absence of αSMA; also recorded: absence of αSMA expression"}, {"measurement": "αSMA expression (immunofluorescence)", "setting": "[1]; CCN2/CTGF-treated MSCs, no TGFβ1", "result": "did not express αSMA; also recorded: minimal"}, {"measurement": "Safranin O staining", "setting": "[3]; CCN2/CTGF-treated MSCs", "result": "negative"}, {"measurement": "Von Kossa staining", "setting": "[3]; CCN2/CTGF-treated MSCs", "result": "negative"}, {"measurement": "ability to differentiate into osteogenic, chondrogenic and adipogenic cells", "setting": "[3]; after 4 wk CCN2/CTGF stimulation (100 ng/mL), vs CCN2/CTGF-free MSCs", "result": "diminished ability to differentiate; also recorded: minimal capacity to further differentiate"}, {"measurement": "collagen deposition with dose (Goldner's Trichrome staining)", "setting": "[4]; 0, 10, 50 or 100 ng/mL, 4 wks", "result": "increased with increasing CCN2/CTGF doses"}, {"measurement": "collagen synthesis", "setting": "[4]; 10 ng/mL", "result": "sufficient to stimulate collagen synthesis"}, {"measurement": "collagen synthesis", "setting": "[4]; 50 ng/mL and 100 ng/mL, compared with 10 ng/mL", "result": "apparently more potent"}, {"measurement": "collagen synthesis (Trichrome staining)", "setting": "[4]; 100 ng/mL, 4 wks, vs MSCs without CCN2/CTGF", "result": "induced remarkable collagen synthesis; also recorded: prompted substantial collagen synthesis"}, {"measurement": "collagen type I content (ELISA)", "setting": "[4]; [8]", "result": "significantly greater; also recorded: significantly higher"}, {"measurement": "tenascin-C content (ELISA)", "setting": "[4]; [8]", "result": "significantly greater; also recorded: significantly higher"}, {"measurement": "contraction of collagen gel", "setting": "[2]", "result": "moderate contraction"}, {"measurement": "differentiation into fibroblast-like cells (Trichrome)", "setting": "[5]", "result": "readily differentiated into fibroblast-like cells that are highly Trichrome positive"}, {"measurement": "MSC stemness markers (CD29, CD44, CD105, CD106, CD117, BMPR, Sca1)", "setting": "[6]; [9]", "result": "steady decreases; also recorded: gradually attenuated"}, {"measurement": "fibroblastic mRNA markers (collagen types I and III, Tn-C, fibronectin, MMP-1, FSP1, vimentin)", "setting": "[6]; [9]", "result": "concomitant increases; also recorded: gradually increased"}, {"measurement": "chondrogenic marker collagen type II expression", "setting": "[6]; CCN2/CTGF-treated MSCs", "result": "undetectable"}, {"measurement": "myofibroblastic marker αSMA expression (RT-PCR)", "setting": "[6]; CCN2/CTGF-treated MSCs", "result": "αSMA negative; also recorded: undetectable"}, {"measurement": "osteogenic marker osteopontin expression", "setting": "[6]; CCN2/CTGF-treated MSCs", "result": "undetectable; also recorded: minimally expressed"}, {"measurement": "rescue of calvarial suture from ectopic mineralization", "setting": "[7]; 50 ng/mL to p10 explant for 25 days", "result": "rescued the calvarial suture from undergoing ectopic mineralization"}, {"measurement": "rescue of calvarial suture from synostosis", "setting": "[7]; 100 ng/mL, ex vivo culture to p35", "result": "rescued calvarial suture from undergoing synostosis"}, {"measurement": "FSP1 and vimentin expression in calvarial suture", "setting": "[7]; ex vivo CCN2/CTGF-treated suture", "result": "expressed"}, {"measurement": "suture width (μCT)", "setting": "[7]; p35, vs without CCN2/CTGF", "result": "significantly greater; also recorded: significantly wider"}, {"measurement": "Tn-C (tenascin C) content of sutures", "setting": "[7]; vs CCN2/CTGF-free sutures", "result": "significantly greater; also recorded: significantly more"}]}]}
